Assay results published in US20240327505A1 (published 2024).

Legend:
[1] = target: SARS-CoV-2 "Delta-plus" B.1.617.2.1 full-length Spike protein on pseudovirus (SARS-CoV-2, UniProt P0DTC2 14-1273); assay: cell-based or functional assay
[2] = target: SARS-CoV-2 "Epsilon" B.1.427/9 full-length Spike protein on pseudovirus (SARS-CoV-2, UniProt P0DTC2 14-1273); assay: cell-based or functional assay
[3] = target: SARS-CoV-2 "Gamma" Brazil P.1.B.1.1.28 full-length Spike protein on pseudovirus (SARS-CoV-2, UniProt P0DTC2 14-1273); assay: cell-based or functional assay
[4] = target: SARS-CoV-2 "Beta" SA B.1.351 full-length Spike protein on pseudovirus (SARS-CoV-2, UniProt P0DTC2 14-1273); assay: cell-based or functional assay
[5] = target: SARS-CoV-2 "Delta" B.1.617.2 full-length Spike protein on pseudovirus (SARS-CoV-2, UniProt P0DTC2 14-1273); assay: cell-based or functional assay
[6] = target: SARS-CoV-2 "Alpha" UK B.1.1.7 full-length Spike protein on pseudovirus (SARS-CoV-2, UniProt P0DTC2 14-1273); assay: cell-based or functional assay
[7] = target: SARS-CoV-2 spike receptor-binding domain (RBD) (SARS-CoV-2, UniProt P0DTC2 319-541)

Binder	Pseudovirus Neturalization [1] [µg/mL]	Pseudovirus Neturalization [2] [µg/mL]	Pseudovirus Neturalization [3] [µg/mL]	Pseudovirus Neturalization [4] [µg/mL]	Pseudovirus Neturalization [5] [µg/mL]	Pseudovirus Neturalization [6] [µg/mL]	Kd [7] [nM]	kon [7] [M⁻¹ s⁻¹]
AB-009610 (antibody, V domains shown) VH: QVQLVQSGAEVKKPGSSVKVSCKASGGTFSNYAISWVRQAPGQGLEWMGRIIPILGIANYAQKFQGRVTITADKSTSTAYMELSSLRSEDTAVYYCATTPYYYDSSGYYLDYWGQGTLVTVSS VL: not shown	> 50	> 50	> 50	> 50	> 50	2.84	–	–
AB-009620 (antibody, V domains shown) VH: QITLKESGPTLVKPTQTLTLTCTFSGFSLSTSGVGVGWIRQPPGKALEWLALIYWDDDKRYSPSLKSRLTITKDTSKNQVVLTMTNMDPVDTATYYCAHHEVATVFDYWGQGTLVTVSS VL: QSALTQPASVSGSPGQSITISCTGTSSDVGAYNYVSWYQQHPGKAPKLMIYEVSNRPSGVSNRFSGSKSGNTASLTISGLQAEDEADYYCSSYTSSSTVFGGGTKLTVL	0.809	0.974	0.327	0.563	0.519	0.257	–	–
AB-009281 (antibody, V domains shown) VH: EVQLVETGGGLIQPGGSLRLSCAASGFTVSSNYMSWVRQAPGKGLEWVSVIYSGGSTYYADSVKGRFTISRDNSKNTLYLQMNSLRAEDTAVYYCARDLYYYGMDVWGQGTTVTVSS VL: DIQLTQSPSFLSASVGDRVTITCRASQGISSYLAWYQQKPGKAPKLLIYAASTLQSGVPSRFSGSGSGTEFTLTISSLQPEDFATYYCQQLNSYPTFGQGTKVEIK	2.29	0.041	> 50	> 50	0.032	> 50	–	–
AB-009613 (antibody, V domains shown) VH: EVQLVESGGGLIQPGGSLRLSCAASGFTVSSNYMSWVRQAPGKGLEWVSVIYSGGSTYYADSVKGRFTISRDNSKNTLYLQMNSLRAEDTAVYYCARDYGDFYFDYWGQGTLVTVSS VL: not shown	> 50	1.16	> 50	> 50	0.101	7.23	–	–
AB-009271 (antibody, V domains shown) VH: EVQLVESGGGLIQPGGSLRLSCAASGFIVSSNYMSWVRQAPGKGLEWVSVIYSGGSTYYADSVKGRFTISRDNSKNTLYLQMNSLRAEDTAVYYCARDYGDFYFDYWGQGTLVTVSS VL: EIVMTQSPATLSVSPGERATLSCRASQSVSSNLAWYQQKPGQAPRLLIYGASTRATGIPARFSGSGSGTEFTLTISSLQSEDFAVYYCQQYYNWPRTFGQGTKVEIK	> 50	0.028	> 50	> 50	0.012	0.275	–	–
AB-009734 (antibody, V domains shown) VH: QVHLVQSGAEVKTPGASVRVSCKASGYTFTSHYMHWVRQAPGQGLEWMGLINPSGSGTAYPQHFQGRVTMTRDTSTTTDYMDLSSLRSEDTAMYFCARMERSGAFDLWGQGTMVTVSS VL: EIVLTQSPGTLSLSPGERATLSCRASQTISSRYLAWYYQKPGQAPRLLIQGSSIRATGIPDRFSGSGSGTDFTLTISRLEPEDFAVYYCQHYGSSPPMYTFGQGTKLEIK	> 50	> 50	40.6	> 50	> 50	> 50	–	–
AB-009661 (antibody, V domains shown) VH: QVQLVESGGGVVQPGRSLRLSCAASGFTFSSYGMHWVRQAPGKGLEWVAVISYDGSNKYYADSVKGRFTISRDNSKNTLYLQMNSLRAEDTAVYYCAKDYGDYGGMDVWGQGTTVTVSS VL: not shown	> 50	> 50	> 50	> 50	> 50	> 50	–	–
AB-009614 (antibody, V domains shown) VH: QVQLVESGGGVVQPGRSLRLSCAASGFTFSSYGMHWVRQAPGKGLEWVAVISYDGSNKYYADSVKGRFTISRDNSKNTLYLQMNSLRAEDTAVYYCAKDQKYYDILTGYYRSTYYYYYYGMDVWGQGTTVTVSS VL: not shown	> 50	> 50	> 50	> 50	31.3	> 50	–	–
AB-009346 (antibody, V domains shown) VH: EVQLVESGGGVVRPGGSLRLSCAASGFTFDDYGMSWVRQAPGKGLEWVSGINWNGGSTGYADSVKGRFTISRDNAKNSLYLQMNSLRAEDTALYYCARWPLLGISGYYHYYMDVWGKGTTVTVSS VL: QSALTQPRSVSGSPGQSVTISCTGTSSDVGGYNYVSWYQQHPGKAPKLMIYDVSKRPSGVPDRFSGSKSGNTASLTISGLQAEDEADYYCCSYAGSYTLLFGGGTKLIVL	> 50	33.6	> 50	> 50	> 50	0.114	–	–
AB-009747 (antibody, V domains shown) VH: QVQLVESGGGVVQPGGSLRLSCAASGFTFSNYGMHWVRQAPGKGLEWVAFIRYDGSNEYYADSVKGRFTISRDNSKNTLYLHMNSLRPEDTAVYYCAKQGLLSNYYYGMDVWGQGTTVTVSS VL: not shown	–	–	–	–	–	–	9.8	108000
AB-009760 (antibody, V domains shown) VH: EVQLVQSGAEVKKPGESLKISCKGSGYSFTSYWIGWVRQMPGKGLEWMGIIYPGDSDTRYSPSFQGQVTISADKSISTAYLQWSSLKASDTAMYYCARSRSSDYFDYWGQGTLVTVSS VL: not shown	46.2	14.1	19.2	> 50	> 50	17.7	–	–
AB-009615 (antibody, V domains shown) VH: QVQLVESGGGVVQPGRSLRLSCAASGFTFSSYGMHWVRQAPGKGLEWVAVIWYDGSNKYYADSVKGRFTISRDNSKNTLYLQMNSLRAEDTAVYYCAKVGSPYCSGGSCYSGYFDYWGQGTLVTVSS VL: not shown	> 50	38.4	> 50	> 50	> 50	> 50	–	–
AB-009769 (antibody, V domains shown) VH: EVQLVESGGGLVQPGGSLRLSCAASGFTFSSYWMSWVRQAPGKGLEWVANIKQDGSEKYYVDSVKGRFTISRDNAKNSLYLQMNSLRAEDTAVYYCARSPEVLWFGDPVLDNWFDPWGQGTLVTVSS VL: SYELTQPPSVSVSPGQTARITCSGDALPKQYAYWYQQKPGQAPVLVIYKDSERPSGIPERFSGSSSGTTVTLTISGVQAEDEADYYCQSADSSGTYPVVFGGGTKLTVL	> 50	> 50	> 50	> 50	> 50	> 50	–	–
AB-009270 (antibody, V domains shown) VH: QMQLVQSGPEVKKPGTSVKVSCKASGFTFTSSAMQWVRQARGQRLEWIGWIVVGSGNTNYAQKFQERVTITRDMSTSTAYMELSSLRSEDTAVYYCAVNYCSSTSCYDAFDIWGQGTMVTVSS VL: not shown	0.012	0.032	0.158	0.169	0.03	0.117	–	–
AB-010021 (antibody, V domains shown, also called AB-0010021) VH: QMQLVQSGPEVKKPGTSVKVSCKASGFTFTSSAVQWVRQARGQRLEWIGWIVVGSGNTNYAQKFQERVTITRDMSTSTAYMELSSLRSEDTAVYYCAAVYCSGGSCLDAFDIWGQGTMVTVSS VL: not shown	0.078	0.629	5.39	8.27	0.574	2.69	–	–
AB-010020 (antibody, V domains shown) VH: QMQLVQSGPEVKKPGTSVKVSCKASGFTFTSSAVQWVRQARGQRLEWIGWIVVGSGNTNYAQKFQERVTITRDMSTSTAYMELSSLRSEDTAVYYCAAPACSSTSCYDGFDIWGQGTMVTVSS VL: not shown	0.001	0.003	0.0114	0.018	0.003	0.013	–	–
